Literature values, collected in patent US20030175285A1, “Molecule of pharmaceutical interest comprising at its n-terminal a glutamic acid or a glutamine in the form of a physiologically acceptable strong acid” (priority 2000, published 2003).
Ends that are not written are not given here.

Experiments:
[1] = tested on: osteoblasts and chondrocytes; conditions: trifluoroacetate form
[2] = acetate form
melanoma = conditions: acetate form, patients suffering from a melanoma

Substance | toxicity for cells in culture [1] | required storage temperature [2] | clinical antitumor effect (melanoma)
Amylin: synthetic peptide in trifluoroacetate form (KCNTATCATQRLANFLVHSSNNFGAILSSTNVGSNTY; cysteine pairing not given here; also: trifluoroacetate salt; UniProt P10997 34-70, looked up) | toxic | – | –
Calcitonin | toxic | – | –
EVDPIGHLY [MAGE-3] | – | −80 °C | tumor regression
